Results taken from article PMC8079276.

Biological target: UDP-N-acetylglucosamine-peptide N-acetylglucosaminyltransferase (mouse (endogenous in MEFs)) (UniProt Q8CGY8)
Test: co-IP; data not shown: share of HCF1 of the MEF lysate that is enriched by immunoprecipitation of endogenous OGT

Sequence of UniProt Q8CGY8 (Q8CGY8 whole entry): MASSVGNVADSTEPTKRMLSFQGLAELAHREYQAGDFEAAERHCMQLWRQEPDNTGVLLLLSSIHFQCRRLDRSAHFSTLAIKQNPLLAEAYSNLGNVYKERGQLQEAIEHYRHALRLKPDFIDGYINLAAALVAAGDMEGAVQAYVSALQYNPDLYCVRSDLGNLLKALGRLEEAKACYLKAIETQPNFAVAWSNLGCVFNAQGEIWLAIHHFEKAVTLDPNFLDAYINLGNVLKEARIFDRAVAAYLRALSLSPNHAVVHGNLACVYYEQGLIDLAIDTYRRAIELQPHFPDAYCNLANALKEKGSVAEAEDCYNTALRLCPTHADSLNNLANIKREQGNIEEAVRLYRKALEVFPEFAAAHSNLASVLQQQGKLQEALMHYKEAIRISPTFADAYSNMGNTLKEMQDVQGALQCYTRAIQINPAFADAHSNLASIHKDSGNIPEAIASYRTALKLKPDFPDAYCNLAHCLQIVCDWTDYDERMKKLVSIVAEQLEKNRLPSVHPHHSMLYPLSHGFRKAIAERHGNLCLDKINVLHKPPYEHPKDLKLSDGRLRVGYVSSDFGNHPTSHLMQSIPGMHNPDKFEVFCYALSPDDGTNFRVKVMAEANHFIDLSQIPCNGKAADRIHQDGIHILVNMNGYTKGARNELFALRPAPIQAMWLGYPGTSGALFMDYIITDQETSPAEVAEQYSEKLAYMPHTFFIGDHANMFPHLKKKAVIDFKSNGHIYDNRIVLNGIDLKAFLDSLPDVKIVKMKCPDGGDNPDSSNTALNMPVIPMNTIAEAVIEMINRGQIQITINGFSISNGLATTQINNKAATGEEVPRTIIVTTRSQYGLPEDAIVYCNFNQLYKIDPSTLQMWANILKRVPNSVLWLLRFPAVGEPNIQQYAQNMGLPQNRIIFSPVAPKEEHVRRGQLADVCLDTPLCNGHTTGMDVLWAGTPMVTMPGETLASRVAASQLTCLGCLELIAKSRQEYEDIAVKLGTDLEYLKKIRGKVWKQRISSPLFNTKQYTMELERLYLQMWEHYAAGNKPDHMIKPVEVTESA

For “Host cell factor 1 precursor, Q61191 1-2045”, the percent of FL HCF1 enriched by OGT immunoprecipitation was 80 to 90%.
